According to paper PMC6945527 (European Heart Journal, 2019):

Tests used:
[1] = target: CAP1 of the surface plasmon resonance assay and of the binding-affinity measurement (UniProt Q01518)
[2] = target: PCSK9 S668RG670E of the binding-affinity measurement (Figure S2) (human, UniProt Q8NBP7 31-692, S668R | G670E)
[3] = target: PCSK9 WT of the binding-affinity measurement (Figure S2) (human, UniProt Q8NBP7 31-692)
[4] = target: PCSK9 A514T of the binding-affinity measurement (Figure S2) (human, UniProt Q8NBP7 31-692, A514T)
Chain of PCSK9 A514T of the binding-affinity measurement (Figure S2) (Q8NBP7 31-692 A514T): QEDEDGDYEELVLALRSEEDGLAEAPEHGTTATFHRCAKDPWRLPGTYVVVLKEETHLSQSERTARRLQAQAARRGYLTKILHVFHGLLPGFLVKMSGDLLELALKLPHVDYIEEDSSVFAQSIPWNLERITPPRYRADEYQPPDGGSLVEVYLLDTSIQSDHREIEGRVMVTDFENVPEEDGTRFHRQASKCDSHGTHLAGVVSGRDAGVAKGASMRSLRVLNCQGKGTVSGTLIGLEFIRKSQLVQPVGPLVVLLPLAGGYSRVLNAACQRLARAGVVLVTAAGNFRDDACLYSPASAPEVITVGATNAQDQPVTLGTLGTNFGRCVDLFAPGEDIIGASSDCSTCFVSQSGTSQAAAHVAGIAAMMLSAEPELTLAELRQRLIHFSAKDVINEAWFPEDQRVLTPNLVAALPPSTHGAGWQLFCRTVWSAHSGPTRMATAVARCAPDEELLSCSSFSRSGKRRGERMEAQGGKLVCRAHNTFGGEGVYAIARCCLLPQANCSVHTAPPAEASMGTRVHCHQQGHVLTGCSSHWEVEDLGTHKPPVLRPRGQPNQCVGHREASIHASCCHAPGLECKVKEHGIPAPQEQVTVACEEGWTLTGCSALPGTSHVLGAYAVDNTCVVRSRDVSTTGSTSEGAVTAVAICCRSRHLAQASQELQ

Chain of PCSK9 WT of the binding-affinity measurement (Figure S2) (Q8NBP7 31-692): as the sequence (Q8NBP7 31-692 A514T) above, with T484A counted along it
Chain of PCSK9 S668RG670E of the binding-affinity measurement (Figure S2) (Q8NBP7 31-692 S668R/G670E): as the sequence (Q8NBP7 31-692 A514T) above, with T484A, S638R, G640E counted along it

Kd [1] | Kd [2] | Kd [3] | Kd [4] | Molecule
960 nM | – | – | – | PCSK9 G670E of the binding-affinity measurement (Figure S2) (from UniProt Q8NBP7 31-692) (natural protein)
– | 2320 nM | 450 nM | 110 nM | CAP1 of the surface plasmon resonance assay and of the binding-affinity measurement (natural protein) MADMQNLVERLERAVGRLEAVSHTSDMHRGYADSPSKAGAAPYVQAFDSLLAGPVAEYLKISKEIGGDVQKHAEMVHTGLKLERALLVTASQCQQPAENKLSDLLAPISEQIKEVITFREKNRGSKLFNHLSAVSESIQALGWVAMAPKPGPYVKEMNDAAMFYTNRVLKEYKDVDKKHVDWVKAYLSIWTELQAYIKEFHTTGLAWSKTGPVAKELSGLPSGPSAGSCPPPPPPCPPPPPVSTISCSYESASRSSLFAQINQGESITHALKHVSDDMKTHKNPALKAQSGPVRSGPKPFSAPKPQTSPSPKRATKKEPAVLELEGKKWRVENQENVSNLVIEDTELKQVAYIYKCVNTTLQIKGKINSITVDNCKKLGLVFDDVVGIVEIINSKDVKVQVMGKVPTISINKTDGCHAYLSKNSLDCEIVSAKSSEMNVLIPTEGGDFNEFPVPEQFKTLWNGQKLVTTVTEIAG
